{"source": "patent US20250340637A1", "about": "(ABPRO, published 2025)", "binders": {"B1": {"name": "ABP100s.18 (antibody, V domains shown)", "VH": "EVQLVESGGGLVQPGGSLRLSCAASGFTFNTYAMNWVRQAPGKGLEWVARIRSKYNNYATYYADSVKGRFTISRDDSKSSLYLQMNSLKTEDTAVYYCVRHGNFGNSYVSWFAYWGQGTLVTVSS", "VL": "QAVVTQEPSLTVSPGGTVTLTCGSSTGAVTTSNYANWVQQKPGQAFRGLIGGTNKKASWTPARFSGSLLGDKAALTLSGAQPEDEAEYYCALWYSNLWVFGGGTKLTVL"}, "B2": {"name": "ABP100s.15 (antibody, V domains shown)", "VH": "B1 VH with Q13K, K78Q, K89R, T90A", "VL": "B1 VL with K56R, S58P, L69I, Y89F"}, "B3": {"name": "ABP100s.16 (antibody, V domains shown)", "VH": "B1 VH with Q13K, S77A, K89R, T90A", "VL": "B1 VL with K56R, S58P, L69I, Y89F"}, "B4": {"name": "ABP100s.20 (antibody, V domains shown)", "VH": "B1 VH with Q13K, S77A, K89R, T90A", "VL": "B1 VL"}, "B5": {"name": "ABP100s.14 (antibody, V domains shown)", "VH": "B1 VH", "VL": "B1 VL with K56R, S58P, L69I, Y89F"}, "B6": {"name": "ABP100s.17 (antibody, V domains shown)", "VH": "B1 VH with K78Q", "VL": "B1 VL"}, "B7": {"name": "ABP100s.19 (antibody, V domains shown)", "VH": "B1 VH with Q13K, K78Q, K89R, T90A", "VL": "B1 VL"}, "B8": {"name": "ABP100s.24 (antibody, V domains shown)", "VH": "B1 VH with Q13K, S77A, K89R, T90A", "VL": "QAVVTQEPSFSVSPGGTVTLTCGSSTGAVTTSNYANWVQQTPGQAFRGLIGGTNKRASGVPDRFSGSLLGDKAALTITGAQADDESDYYCALWYSNLWVFGGGTKLTVL"}, "B9": {"name": "ABP100s.13 (antibody, V domains shown)", "VH": "B1 VH with K78Q", "VL": "B1 VL with K56R, S58P, L69I, Y89F"}, "B10": {"name": "ABP100s.22 (antibody, V domains shown)", "VH": "B1 VH", "VL": "B8 VL"}, "B11": {"name": "ABP100s.23 (antibody, V domains shown)", "VH": "B1 VH with Q13K, K78Q, K89R, T90A", "VL": "B8 VL"}, "B12": {"name": "ABP100s.21 (antibody, V domains shown)", "VH": "B1 VH with K78Q", "VL": "B8 VL"}, "B13": {"name": "47D10-V7 x huSP34-v5 (N297A, K322A) (bispecific antibody, V domains shown)", "VH": "B1 VH with R19K, G68D, S79N, S80T, L81A", "VL": "QTVVTQEPSLTVSPGGTVTLTCRSSTGAVTTSNYANWVQQKPGQAFRGLIGGTNKRAPGVPARFSGSLLGGKAALTLSGVQPEDEAIYFCALWYSNLWVFGGGTKLEIK", "notes": "The name carries the substitutions N297A, K322A"}, "B14": {"name": "47D10-V7 x huSP34-v5 (bispecific antibody, V domains shown)", "VH": "B1 VH with R19K, G68D, S79N, S80T, L81A", "VL": "B13 VL", "notes": "The name reads as 47D10-V7 arm x huSP34-v5 arm"}, "B15": {"name": "32G4-V8-v5.1 (antibody, V domains shown)", "VH": "B1 VH with R19K, G68D, S79N, S80T, L81A, A113G", "VL": "B13 VL with E107T, I108V, K109L"}, "B16": {"name": "32G4-V8 x huSP34-v5 (bispecific antibody, V domains shown)", "VH": "B1 VH with R19K, G68D, S79N, S80T, L81A", "VL": "B13 VL", "notes": "The name reads as 32G4-V8 arm x huSP34-v5 arm"}, "B17": {"name": "32G4-V8 x huSP34-v5 (N297A, K322A) (bispecific antibody, V domains shown)", "VH": "B1 VH with R19K, G68D, S79N, S80T, L81A", "VL": "B13 VL", "notes": "as for B13"}, "B18": {"name": "47D10-V7-v5.1 (antibody, V domains shown)", "VH": "B1 VH with R19K, G68D, S79N, S80T, L81A, A113G", "VL": "B13 VL with E107T, I108V, K109L"}, "B19": {"name": "ABP100s.1 (antibody, V domains shown)", "VH": "B1 VH with K78Q", "VL": "B8 VL with S58P, L69I, Y89F"}, "B20": {"name": "anti-HER2×CD3 BsAb comprising the anti-CD3 VH and VL sequences of ABP100s.10.0 (bispecific antibody, V domains shown)", "VH 1": "not shown", "VL 1": "not shown", "VH 2": "B1 VH with R19K, G44C, G68D, S79N, S80T, L81A", "VL 2": "B13 VL with G102C, E107T, I108V, K109L", "notes": "Only the four variable domains are tied to the tested molecule; also called 10.0 clone; parental construct"}, "B21": {"name": "ABP100s.5.4 (antibody, V domains shown)", "VH": "B1 VH with R19K, G68D, S79N, S80T, L81A", "VL": "B13 VL with E107T, I108V, K109L"}, "B22": {"name": "ABP100s.5.1 (antibody, V domains shown)", "VH": "B1 VH with R19K, G44C, G68D, S79N, S80T, L81A", "VL": "B13 VL with G102C"}, "B23": {"name": "ABP100s.2 (antibody, V domains shown)", "VH": "B1 VH", "VL": "B8 VL with S58P, L69I, Y89F"}, "B24": {"name": "ABP100s.10.1 (antibody, V domains shown)", "VH": "B1 VH with R19K, G44C, G68D, S79N, S80T, L81A", "VL": "B13 VL with G102C, E107T, I108V, K109L"}, "B25": {"name": "ABP100s.10.2 (antibody, V domains shown)", "VH": "B1 VH with R19K, G44C, G68D, S79N, S80T, L81A", "VL": "B13 VL with G102C, E107T, I108V, K109L"}, "B26": {"name": "ABP100s.6 (antibody, V domains shown)", "VH": "B1 VH with R19K, G68D, S79N, S80T, L81A", "VL": "B13 VL with I87E"}, "B27": {"name": "ABP100s.7 (antibody, V domains shown)", "VH": "B1 VH with R19K, P41S, G68D, S79N, S80T, L81A", "VL": "B13 VL"}, "B28": {"name": "ABP100s.3 (antibody, V domains shown)", "VH": "B1 VH with Q13K, K78Q, K89R, T90A", "VL": "B8 VL with S58P, L69I, Y89F"}, "B29": {"name": "ABP100s.4 (antibody, V domains shown)", "VH": "B1 VH with Q13K, S77A, K89R, T90A", "VL": "B8 VL with S58P, L69I, Y89F"}, "B30": {"name": "ABP100s.5.2 (antibody, V domains shown)", "VH": "B1 VH with R19K, G68D, S79N, S80T, L81A, Q117C", "VL": "B13 VL with A45C"}, "B31": {"name": "ABP100s.5 (antibody, V domains shown)", "VH": "B1 VH with R19K, G68D, S79N, S80T, L81A", "VL": "B13 VL"}, "B32": {"name": "ABP100s.10.3 (antibody, V domains shown)", "VH": "B1 VH with R19K, G44C, G68D, S79N, S80T, L81A", "VL": "B13 VL with G102C, E107T, I108V, K109L"}}, "note": "Numbering of substitutions follows the chain as printed. Names may count otherwise.", "data": [{"molecular_target": "T1, HuCD3E (Homo sapiens, UniProt P07766 23-126, limits assumed)", "T1 construct": "Recombinant analyte in SPR and antigen in ELISA; also called human CD3; human CD3 epsilon", "T1 sequence (P07766 23-126 limits assumed)": "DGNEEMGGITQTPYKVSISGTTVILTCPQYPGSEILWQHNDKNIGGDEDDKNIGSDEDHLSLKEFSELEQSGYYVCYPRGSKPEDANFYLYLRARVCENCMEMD", "assay": "SPR, Biacore 8K; CD3 Affinity column: Hi", "procedure": "Initially, the affinity measurement of the anti-CD3 clones were determined using a Surface Plasmon Resonance (SPR) biosensor, Biacore 8K (GE Healthcare). The equilibrium dissociation constant (KD) was calculated from the ratio of kd over ka. To determine the contribution of a specific residue to antibody affinity and expression, paratope mapping was performed by screening of NNK libraries. In brief, the VH and VL of the parental antibody were searched by using NCBI Ig-Blast (www.ncbi.nlm.nih.gov/projects/igblast/) and CDRs were defined by the KABAT delineation system. All residues within CDRs were defined and mutated by NNK method. Each individual NNK library was generated per residue based on the FASEBA platform with a theoretical diversity at 20. The DNA encoding both heavy chain and light chain were inserted into a mammalian expression vector, transfected into CHO-S cells, and stable clones of highest expression were selected. Supernatants were collected from shaker flasks and purified on protein A affinity chromatography.\nAffinity ranking. Binding between the parental and affinity-tuned bispecific antibodies and human and cyno target proteins (HER2 and CD3) was validated by ELISA, and a Biacore 8K was used to study the kinetics of the interaction between the antigen and the bispecific antibodies.", "units": {"Kd": "nM"}, "values": [{"binder": "B1", "Kd": "< 10"}, {"binder": "B2", "Kd": "< 10"}, {"binder": "B3", "Kd": "< 10"}, {"binder": "B4", "Kd": "< 10"}, {"binder": "B5", "Kd": "< 10"}, {"binder": "B6", "Kd": "< 10"}, {"binder": "B7", "Kd": "< 10"}, {"binder": "B8", "Kd": "< 10"}, {"binder": "B9", "Kd": "< 10"}, {"binder": "B10", "Kd": "< 10"}, {"binder": "B11", "Kd": "< 10"}, {"binder": "B12", "Kd": "< 10"}]}, {"molecular_target": "T1, HuCD3E", "assay": "SPR, Biacore 8K; CD3 Affinity column: Hi", "remark": "another data set of the same source", "units": {"Kd": "nM"}, "values": [{"binder": "B13", "Kd": "< 10"}, {"binder": "B14", "Kd": "< 10"}, {"binder": "B15", "Kd": "< 10"}, {"binder": "B16", "Kd": "< 10"}, {"binder": "B17", "Kd": "< 10"}, {"binder": "B18", "Kd": "< 10"}]}, {"molecular_target": "T1, HuCD3E", "assay": "SPR, Biacore 8K; CD3 Affinity column: Hi", "remark": "another data set of the same source", "units": {"Kd": "nM"}, "values": [{"binder": "B19", "Kd": "< 10"}, {"binder": "B20", "Kd": "< 10"}, {"binder": "B21", "Kd": "< 10"}, {"binder": "B22", "Kd": "< 10"}, {"binder": "B23", "Kd": "< 10"}, {"binder": "B24", "Kd": "< 10"}, {"binder": "B25", "Kd": "< 10"}, {"binder": "B26", "Kd": "< 10"}, {"binder": "B27", "Kd": "< 10"}, {"binder": "B28", "Kd": "< 10"}, {"binder": "B29", "Kd": "< 10"}, {"binder": "B30", "Kd": "< 10"}, {"binder": "B31", "Kd": "< 10"}, {"binder": "B32", "Kd": "< 10"}]}]}
